B1: HKU1 isolate N1 (genotype A) RBD, wildtype, without avi tag (domain or fragment)
chain: RIPDLPDCDIDKWLNNFNVPSPLNWERKIFSNCNFNLSTLLRLVHTDSFSCNNFDESKIYGSCFKSIVLDKFAIPNSRRSDLQLGSSGFLQSSNYKIDTTSSSCQLYYSLPAINVTINNYNPSSWNRRYGFNNFNLSSHSVVYSRYCFSVNNTFCPCAKPSFASSCKSHKPPSASCPIGTNYRSCESTTVLDHTDWCRCSCLPDPITAYDPRSCSQKKSLVGVGEHCAGFGVDEEKCGVLDGSYNVSCLCSTDAFLGWSYDTCVSNNRCNIFSNFILNGINSGTTCSNDLLQPNT
notes: also called HKU1 RBD; HKU1 RBD (without avi tag); not shown: His8, C-terminal, kept
B2: HKU1 spike (S) glycoprotein: S357A (protein)
parent chain: MLLIIFILPTTLAVIGDFNCTNFAINDLNTTVPRISEYVVDVSYGLGTYYILDRVYLNTTILFTGYFPKSGANFRDLSLKGTTYLSTLWYQKPFLSDFNNGIFSRVKNTKLYVNKTLYSEFSTIVIGSVFINNSYTIVVQPHNGVLEITACQYTMCEYPHTICKSKGSSRNESWHFDKSEPLCLFKKNFTYNVSTDWLYFHFYQERGTFYAYYADSGMPTTFLFSLYLGTLLSHYYVLPLTCNAISSNTDNETLQYWVTPLSKRQYLLKFDNRGVITNAVDCSSSFFSEIQCKTKSLLPNTGVYDLSGFTVKPVATVHRRIPDLPDCDIDKWLNNFNVPSPLNWERKIFSNCNFNLSTLLRLVHTDSFSCNNFDESKIYGSCFKSIVLDKFAIPNSRRSDLQLGSSGFLQSSNYKIDTTSSSCQLYYSLPAINVTINNYNPSSWNRRYGFNNFNLSSHSVVYSRYCFSVNNTFCPCAKPSFASSCKSHKPPSASCPIGTNYRSCESTTVLDHTDWCRCSCLPDPITAYDPRSCSQKKSLVGVGEHCAGFGVDEEKCGVLDGSYNVSCLCSTDAFLGWSYDTCVSNNRCNIFSNFILNGINSGTTCSNDLLQPNTEVFTDVCVDYDLYGITGQGIFKEVSAVYYNSWQNLLYDSNGNIIGFKDFVTNKTYNIFPCYAGRVSAAFHQNASSLALLYRNLKCSYVLNNISLTTQPYFDSYLGCVFNADNLTDYSVSSCALRMGSGFCVDYNSPSSSSSRRKRRSISASYRFVTFEPFNVSFVNDSIESVGGLYEIKIPTNFTIVGQEEFIQTNSPKVTIDCSLFVCSNYAACHDLLSEYGTFCDNINSILDEVNGLLDTTQLHVADTLMQGVTLSSNLNTNLHFDVDNINFKSLVGCLGPHCGSSSRSFFEDLLFDKVKLSDVGFVEAYNNCTGGSEIRDLLCVQSFNGIKVLPPILSESQISGYTTAATVAAMFPPWSAAAGIPFSLNVQYRINGLGVTMDVLNKNQKLIATAFNNALLSIQNGFSATNSALAKIQSVVNSNAQALNSLLQQLFNKFGAISSSLQEILSRLDALEAQVQIDRLINGRLTALNAYVSQQLSDISLVKFGAALAMEKVNECVKSQSPRINFCGNGNHILSLVQNAPYGLLFMHFSYKPISFKTVLVSPGLCISGDVGIAPKQGYFIKHNDHWMFTGSSYYYPEPISDKNVVFMNTCSVNFTKAPLVYLNHSVPKLSDFESELSHWFKNQTSIAPNLTLNLHTINATFLDLYYEMNLIQESIKSLNNSYINLKDIGTYEMYVKWPWYVWLLISFSFIIFLVLLFFICCCTGCGSACFSKCHNCCDEYGGHHDFVIKTSHDD

The first data set addresses human TMPRSS2 ectodomain harboring the S441A residue substitution and the C379-T447C disulfide bond (UniProt O15393). Kind of data set: BLI. Particulars: parent: est. 0.54; read off a plot.
For the molecule “HKU1 isolate N1 (genotype A) RBD, wildtype, avi-tagged and biotinylated (from UniProt Q5MQD0) E505A”, the response was determined as 0.37 nm.

In the case of “HKU1 isolate N1 (genotype A) RBD, wildtype, avi-tagged and biotinylated (from UniProt Q5MQD0) H488A”, the response stood at 0.17 nm.

On to “HKU1 isolate N1 (genotype A) RBD, wildtype, avi-tagged and biotinylated (from UniProt Q5MQD0) Y528A”, for which the response is 0.11 nm.

Another data set concerns the target HKU1 isolate N1 (genotype A) RBD, wildtype, avi-tagged and biotinylated (UniProt Q5MQD0). In words: BLI. As to conditions: parent: est. 0.51; read off a plot.
Regarding “human TMPRSS2 ectodomain, active (S441), with the C379-T447C disulfide bond (from UniProt O15393) R470A”, the response was found to be 0.15 nm.

As for “human TMPRSS2 ectodomain, active (S441), with the C379-T447C disulfide bond (from UniProt O15393) Y414A”, the response turned out to be 0.11 nm. For “human TMPRSS2 ectodomain, active (S441), with the C379-T447C disulfide bond (from UniProt O15393) Y469A”, the response turned out to be 0.36 nm.

The same data set, now with this note: read off a plot.
On to “human TMPRSS2 ectodomain, active (S441), with the C379-T447C disulfide bond (from UniProt O15393) A468P”, for which the percent of parent stood at 57 % WT.

“human TMPRSS2 ectodomain, active (S441), with the C379-T447C disulfide bond (from UniProt O15393) D417N”: the percent of parent turned out to be 7.5 % WT. On the same count and under the same terms, to “human TMPRSS2 ectodomain, active (S441), with the C379-T447C disulfide bond (from UniProt O15393) K340D” belongs 38 % WT; to “human TMPRSS2 ectodomain, active (S441), with the C379-T447C disulfide bond (from UniProt O15393) L419A”, 2.7 % WT. Still for that read-out and setting: to “human TMPRSS2 ectodomain, active (S441), with the C379-T447C disulfide bond (from UniProt O15393) L419M” belongs 30 % WT; to “human TMPRSS2 ectodomain, active (S441), with the C379-T447C disulfide bond (from UniProt O15393) R409K”, 36 % WT; to “human TMPRSS2 ectodomain, active (S441), with the C379-T447C disulfide bond (from UniProt O15393) R409T”, 58 % WT.

For “human TMPRSS2 ectodomain, active (S441), with the C379-T447C disulfide bond (from UniProt O15393) R413K”, the percent of parent was found to be 52 % WT.

In the case of “human TMPRSS2 ectodomain, active (S441), with the C379-T447C disulfide bond (from UniProt O15393) R413V”, the percent of parent came to 64 % WT.

Regarding “human TMPRSS2 ectodomain, active (S441), with the C379-T447C disulfide bond (from UniProt O15393) R470K”, the percent of parent worked out at 2.1 % WT.

As to “human TMPRSS2 ectodomain, active (S441), with the C379-T447C disulfide bond (from UniProt O15393) S412N”, the percent of parent came out at 77 % WT. For “human TMPRSS2 ectodomain, active (S441), with the C379-T447C disulfide bond (from UniProt O15393) S441A”, the percent of parent stood at 95 % WT. The same measure, in the same setting: to “human TMPRSS2 ectodomain, active (S441), with the C379-T447C disulfide bond (from UniProt O15393) S463F” belongs 2.3 % WT.

Take “human TMPRSS2 ectodomain, active (S441), with the C379-T447C disulfide bond (from UniProt O15393) S463T”: the percent of parent amounted to 2.7 % WT.

Regarding “human TMPRSS2 ectodomain, active (S441), with the C379-T447C disulfide bond (from UniProt O15393) S463Y”, the percent of parent was 2.3 % WT. Regarding “human TMPRSS2 ectodomain, active (S441), with the C379-T447C disulfide bond (from UniProt O15393) T341S”, the percent of parent came out at 61 % WT.

Take “human TMPRSS2 ectodomain, active (S441), with the C379-T447C disulfide bond (from UniProt O15393) V415I”: the percent of parent came out at 47 % WT. Turning to “human TMPRSS2 ectodomain, active (S441), with the C379-T447C disulfide bond (from UniProt O15393) Y414L”, the percent of parent was 2.2 % WT.

For the molecule “human TMPRSS2 ectodomain, active (S441), with the C379-T447C disulfide bond (from UniProt O15393) Y414S”, the percent of parent was found to be 14 % WT.

For the molecule “human TMPRSS2 ectodomain, active (S441), with the C379-T447C disulfide bond (from UniProt O15393) Y469N”, the percent of parent was determined as 5.7 % WT.

Another data set concerns the target human TMPRSS2 ectodomain, active (S441), with the C379-T447C disulfide bond (human, UniProt O15393 106-492, T447C). In words: enzyme inhibition kinetics (fluorogenic peptide substrate); 5 nM TMPRSS2 with serial dilutions of Boc-QAR-AMC in the presence of 215, 72 or 24 nM HKU1 RBD, 2 min preincubation, 22 °C; fit of competitive inhibition. Particulars: both partners purified.
By Ki is commonly meant a measure of affinity in units of concentration, obtained from inhibition or displacement. For B1, the Ki turned out to be 38 ± 5 nM.

Target in a further data set: not given
Experiment: not given
Particulars: glycan lost.
Turning to B2, the “other: neutralisation sensitivity, other: geometric mean ID50 dilution” value was “increases”.

(Values after paper doi:10.1101/2024.01.09.574565, “Human coronavirus HKU1 recognition of the TMPRSS2 host receptor” (bioRxiv, 2024).)
